Numbering of substitutions follows the chain as printed.
Biological target: ADAM17 (UniProt P78536)
Test: BLI (Octet Red96, 25 C), antibody captured on anti-human Fab-CH1 (FAB2G) biosensor, antigen in solution

B1: D5.P2.B3 (Fab, V domains shown)
VH: QVQLQQSGAEVKKPGASVKVSCKASGYTFTGYYMHWVRQAPGQGLEWMGWINGNSGGTNYAQKFQGRVTMTRDTSISTAYMELSRLKSDNTAVYYCASSGSMDVWGQGTLVTVSS
VL: QSVVTQPPSVSGAPGQRVTISCSGSSSNVGRNLVYWYQQLPGAAPRLLIYRNNQRPSGVPDRFSGSKSGTSASLAISGLRSEDEADYYCAAWDDSLSGVVFGGGTKLTVLG
- Kd: 4.9 nM
- koff: 0.0012 s⁻¹
- kon: 240000 M⁻¹ s⁻¹

B2: D5.P1.A4 (Fab, V domains shown)
VH: B1 VH with N54K, N90D, S98R, S99L, G100D, S101R, M102R, V104Y
VL: B1 VL
- Kd: 5.3 nM
- koff: 0.0023 s⁻¹
- kon: 430000 M⁻¹ s⁻¹

Source: patent publication US20230159653A1
